{"source": "paper PMC8931120", "about": "“LC3B is an RNA-binding protein to trigger rapid mRNA degradation during autophagy”", "key": {"LC3B-R/Q": {"target": "LC3B-R/Q (human, UniProt Q9GZQ8 1-120, R68Q;R69Q;R70Q)", "experiment": "EMSA; 1 mM Mg2+, 2 uM probe; EMSA: 40 mM Tris pH 8.0, 30 mM KCl, 1 mM MgCl2, 0.01% NP-40, 1 mM DTT, 30 C 1 h; FP: same buffer without NP-40, 100 nM RNA final (200 nM stock diluted 1:2), pro"}, "[1]": {"target": "LC3B-WT (mature, cleaved by ATG4B) (human, UniProt Q9GZQ8 1-120)", "experiment": "EMSA; 1 mM Mg2+, 2 uM probe; EMSA: 40 mM Tris pH 8.0, 30 mM KCl, 1 mM MgCl2, 0.01% NP-40, 1 mM DTT, 30 C 1 h; FP: same buffer without NP-40, 100 nM RNA final (200 nM stock diluted 1:2), pro"}}}
{"binder": "AAUAAAAAUAAAAAUAAA (ssRNA)", "note": "[Cy5-AAUAAAx3]", "values": [{"measurement": "binding result", "setting": "LC3B-R/Q", "value": "no binding"}, {"measurement": "binding result", "setting": "[1]", "value": "binds"}]}
